# Experimental data taken from the nanobody polyreactivity screen of Harvey et al. (2022).
# Experiment: yeast display, Sf9 membrane polyspecificity reagent, FACS + sequencing; frameworks hold sequencing errors
# Method in brief: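 A nanobody's polyreactivity label depends on the gate it was sorted from. Yeast display cells were stained with 10% biotinylated, detergent-solubilized Sf9 membrane reagent for 1 hour at 4 °C, enriched on streptavidin microbeads and sorted by FACS. The low and high (top ~1%) gates were set on anti-HA fluorescence for expression and streptavidin fluorescence for reagent binding.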
row,Sequence,polyreactivity (PSR sort gate)
1,QVQLVESGGGLVQAGGSLRLSCAASGSILLYYTMGWYIQAPGKEWELVAAISWSGGSTYYADSVKGRFTISRDNAKNTVYLLMISLKPEDTAVYYCATRSVQGSYFAGYGYWGQGTQVTVSS,low polyreactivity
2,QVQLVESGGGLVQAGGSLRLSCAASGSILNAYAMGWYRQAPGKERELVAAITGSDGSTYYADSVKGRFTISRDNAKNTVYLQMNSLKPEDTAVYYCNADYSQPVYWWLDDYWGHGTQVTVSS,low polyreactivity
3,QVQLVESGGGLVQAGGSLRLSCAASGSILNFYAMGWYRQAPGKERELVAAISSGGSTNYADSVKGRFTISRDNAKNTVYLQMNSLKPEDTAVYYCAATGGDRYEAYYYWGQGTQVTVSS,low polyreactivity
4,QVQLVESGGGLVQAGGSLRLSCAASGSILNPNAMGWSRQAPGKERELVASISKSGGSTYYADSVKGRFTISRDNAKNTVYLQMNSLKPEDTAVYYCAAAFVSVRERYGYWGQGTQVTVSS,high polyreactivity
5,QVQLVESGGGLVQAGGSLRLSCAASGSILPLYAMGWYRQAPGKERELVATISNAGSTTYADSVKGRFTISRDNAKNTVYLQMHSLKPEVTAVYYCNAESEWGWVYVGYDYWGQGTQVTVSS,low polyreactivity
6,QVQLVESGGGLVQAGGSLRLSCAASGSILPRYGMGWYSQAPGKEREFVAAISWRGGRTYYADSVKGRFTISRDTAKHTVYVQMNSLKPEDTAVYYCAARAHIYTRLDYWGQGTEVTVSS,high polyreactivity
7,QVQLVESGGGLVQAGGSLRLSCAASGSILQSYAMGWYRQAPGKERELVAAISGSGGSTYYADSVKGRFTISRDNAKNTVYLQMNSLKPEDTAVYYCAKGPLYRTSRGEFGYWGQGTQVTVAS,low polyreactivity
8,QVQLVESGGGLVQAGGSLRLSCAASGSILQVYAMGWYRQAPGKERELFADINYTTGSTYYADSVKGRFTISRDNAKNTVYLQMNSLKPEDTAVYYCAKDFGFQSDSWGQGTQVTVSS,low polyreactivity
9,QVQLVESGGGLVQAGGSLRLSCAASGSILRKYAMGWYRQAPGKERELVAAISGSGGRTHYADSVKGRFTISRDNAKNTVYLQMNSLKPEDTAVYYCARRIKLGQRQGGYYWGQGTQVTVSS,high polyreactivity
10,QVQLVESGGGLVQAGGSLRLSCAASGSILRRNAMGWYRPAPGKERELFAGISRGGNTNYADSVNGRFTISRDNAKNTVYLQMNSLKPEDTAVYYCDTDGYGRWGRLTFTYWGQGTQVTVSS,low polyreactivity
11,QVQLVESGGGLVQAGGSLRLSCAASGSILRSYAMGWYRQAPGKERELVAVINGSGGRTYYADSVKGRFTISRDNAKNTVYLQMNSLKPEDTAVYYCAARRHTKRPGYDYWGQGTQVTVSS,low polyreactivity
12,QVQLVESGGGLVQAGGSLRLSCAASGSILRTYTMGWYRQAPGKERELVAAISSSGGRTYYADSVKGRFTISRDNAKNTVYLQMNSLKPEDTAVYYCNAAYTTWRRGPMNYWGQGTQVTVSS,high polyreactivity
13,QVQLVESGGGLVQAGGSLRLSCAASGSILRYYTMGWYRQAPGKERELVASIRATGGNTYYADSVKGRFTISRDNAKNTVYLQMNSLKPEDTAVYYCAARYRKKYYWGQGTQVTVSS,high polyreactivity
14,QVQLVESGGGLVQAGGSLRLSCAASGSILSAYSMGWYRQAPGKARELVAAISKSGSSTYYSDSVKGRFTISRDNAKNTVYLQMNSLKPEDTAVYYCAAESSSYYGYYIYYYWGQGTQVTVSS,high polyreactivity
15,QVQLVESGGGLVQAGGSLRLSCAASGSILSENAMGWYRQAPGKERELVATISGSGSSTYYADSVKGRFTISRDNAKNTVYLQMNSLKPEDTAVYYCAAKYYLYWWPYDYWGQGTQVTVSS,low polyreactivity
16,QVQLVESGGGLVQAGGSLRLSCAASGSILSHNAMGWYRQAPGKERELVAAITTSGSTTYADSVKGRFTISRDNAKNTVYLQMNSLKPEDTAVYYCNARPDSWSDTAQNRYDYWGQGTQVTVSS,low polyreactivity
17,QVQLVESGGGLVQAGGSLRLSCAASGSILTRNAMGWYRQAPAKEREFVARITYSGGRTYYADSVKGRFTISRDNAKNTVYLQMNSLKPEDTAVYYCAKTDRYSLGYWGQGTQVTVSS,low polyreactivity
18,QVQLVESGGGLVQAGGSLRLSCAASGSILTVYSMGWYRQAPGKERELVARIRSGDRTYYADSVKGRFTISRDNAKNTVYLQMNSLKPEDTAVYYCAAGSQRRYYHTNWDSFNYWGQGTQVTVSS,low polyreactivity
19,QVQLVESGGGLVQAGGSLRLSCAASGSILVNNAMGWYRQAPGKERELVAAISRSGTRTFYADSVKGRFTISRENAKNTVYLQMNSLKPEDTAVYYCAVDYYYRMDYWGQGTQVTVSS,high polyreactivity
20,QVQLVESGGGLVQAGGSLRLSCAASGSILWLYVMGWYRQAPGKERELVATITSSGGSTYYADSVKGRFTISRDNAKNTVYLQKNSLKPEDTAVYYSAAQTYNSYDYWGQATQVTVSS,low polyreactivity
21,QVQLVESGGGLVQAGGSLRLSCAASGSILWQYAIGRYRQAPGKEMELVAAINQRGGSTYYADSVKGRFTISRDYAKNTVYLQMNSLKPEDTAVYYCNTYPTRTYPSYYYWGQGTQVTVSS,high polyreactivity
22,QVQLVESGGGLVQAGGSLRLSCAASGSILWQYAMGWSRQAPGKERELVAAITYSGASTHYADSVKGRFTISRDNAKNTVYLQMNRLKPEDTAVYYCAAGYWYRYAALRYDHWGQGTQVTVSS,low polyreactivity

row,Sequence,polyreactivity (PSR sort gate)
1,QVQLVESGGGLVQAGGSLRLSCAASGSILWVNAMGWYRQAPGKERELVAAITSGGDSTNYADSVKGRFTISRDNAKNTVYLQMNSLKPEDTAVYYCNAEFWLNEDLDYDTSYDYWGQGTQVTVSS,low polyreactivity
2,QVQLVESGGGLVQAGGSLRLSCAASGSILYANAMGWYRQAPGKDRELVAAISARGTSTYYADSVKGRFTISRDNAKNTVYLQMNSLKPEDTAVYYCAAYVRKKLPSALMNYWGQGTQVTVSS,high polyreactivity
3,QVQLVESGGGLVQAGGSLRLSCAASGSILYLNAMGWYRQAPGKERELVAAITWSGGSTSYADSVKGRFTISRDNAKNTVYLQMISLKPEDTAVYYCAAVRRGYGGVYYAGGYWGQGTQVTVSS,low polyreactivity
4,QVQLVESGGGLVQAGGSLRLSCAASGSILYPNAMGLYRQAPGKERELVAAISSSGGSTYYADSVKGRFTISRDNAKNTVYLQMNSLKPEDTAVYYCAADHYIPIYSKYDYWGQVTQVTVSS,high polyreactivity
5,QVQLVESGGGLVQAGGSLRLSCAASGSILYRNAMGWYRQAPGKEREFVAAISWRGGSTYYADSVKGRFTISRDNAKNTVYLQMNSLKPEDTAVYYCAKGGYRSPPGRYDGYYWGQGTQVTVSS,high polyreactivity
6,QVQLVESGGGLVQAGGSLRLSCAASGSILYRYTMGWYRQAPGKERELVAAITKRGGRTYYADSVKGRFTISRDNAKNTVYLQMNSLKPEDTAVYYCAAKYYTGGSFEMYYWGQGTQVTVSS,high polyreactivity
7,QVQLVESGGGLVQAGGSLRLSCAASGSILYTNAMGWYRQAPGKERELVAAITTSGASTYYADSVKGRFTISRDNAKNTVYLQMNSLKPEDTAVYDCAAPSRYRYYWGNYWGQGTQVTVSS,high polyreactivity
8,QVQLVESGGGLVQAGGSLRLSCAASGSILYVYAMGWYRQAPGKERELVAAISFSGGSTYYADSVKGRFTISRDNAKNTVYLQMNSLKPEDTAVYYCAAALGPGAWYGDKYEYEYWGQGTQVTVSS,low polyreactivity
9,QVQLVESGGGLVQAGGSLRLSCAASGSILYVYAMGWYRQAPGKERELVATITGRVVSKNYADSVKGRLTLSRDNAKNSVYLQMNSLKPEDTAVYYCAARTRRRRGEYDYWGQGTQVTVSS,high polyreactivity
10,QVQLVESGGGLVQAGGSLRLSCAASGSILYVYAMGWYTQAPGKERELVAAISNRDGSTYYADSVKGRFTISRDNAKNTVYLQMNSLKPEDTAVYYCNADGYGDYSFLKYRFEYDYWGQGTQVTVSS,low polyreactivity
11,QVQLVESGGGLVQAGGSLRLSCAASGSILYVYDMGWYRQAPGNERELVATITGRVVSTNYADSVKGRFTISRDNAKNTVYLQMNSLKPEDTAVYYCAARTRRRRGEYDYWGQGTQVTVSS,high polyreactivity
12,QVQLVESGGGLVQAGGSLRLSCAASGSILYWNAMGWYRQAPGKERELVADITWRGGSTYADSVKGRFTISRDNAKNTVYLQMNSLKPEDTAVYYCNAVPVRGSAPRYRQTYSYWGQGTQVTVSS,high polyreactivity
13,QVQLVESGGGLVQAGGSLRLSCAASGSIMNNYAMGWYRQAPGKERELVAAISSSGGTNYADSVKGRFTISRDNAKNTVYLLMNSLKPEDTAVYYCNADVMDGGYDYWGQGTQVTVSS,low polyreactivity
14,QVQLVESGGGLVQAGGSLRLSCAASGSINCSNAMGLYRKAPRKERDLVAAITESGGDTYYADSVKGRFTISRDNAKNTVYLLINSMKPEDTAVYYCAARYFGVIVDVSLFSEYGSWGQGTQVTVSS,low polyreactivity
15,QVQLVESGGGLVQAGGSLRLSCAASGSIQGKNAMRWYRPAPGKERELVAAISTRGGSTYYADSVKGRFTISRDNAKNSVYFQMNSLKPEDTAVYYCNARWREYKAKWGSRYDYWGQGTQVTVSS,high polyreactivity
16,QVQLVESGGGLVQAGGSLRLSCAASGSIQYRYAMGWYRQAPGKERELVAAITRSGGSTYYADSVKGRFTISRDNAKNTVYLQMNSLKPEDTAVYYCARQRKVSAHSIEMDYWGQGTQVTVSS,low polyreactivity
17,QVQLVESGGGLVQAGGSLRLSCAASGSIQYYAMGWYRQAPGKERELVAAIRFSGGRTYYADSVKGRFTISRDNAKNTVYLQMNSLKPEDTAVYYCAAYRSPRRSGAPSQGKFDYWGQGTQVTVSS,low polyreactivity
18,QVQLVESGGGLVQAGGSLRLSCAASGSIRYNAMGWYRQAPGKERELVAAISYRGGTTYYADSVKGRYTISRDNAKNTVYLQMNSLKPEDTAVYYCNAGVRAYGYSAKYYYWGQGTQVTVSS,high polyreactivity
19,QVQLVESGGGLVQAGGSLRLSCAASGSISAGNAMGWYRQAPGKERELVAAISISAGRTYYADSVKGRFTISRDNAKNTVYLQMNSLKPEDTAVYYCNAYSSYIKYDYWGQGTQVTVSS,high polyreactivity
20,QVQLVESGGGLVQAGGSLRLSCAASGSISDSYAMGWYRPAPGKERELVAAITSGDSTYYADSVKGRFTISRDNAKNTVYLQMNSLKPEDTAVYYCAKRVSRVRGYGFTDWSEYDYWGQGTQVTVSS,low polyreactivity
21,QVQLVESGGGLVQAGGSLRLSCAASGSISFLYTMGWYRQAPGKERELVAAITGSTASTYYADSVKGRFTISRDNAKNTVYLQMNSLKPEDTAVYYCAAYWYAEGYWVSRDYWGQGTQVTVSS,low polyreactivity
